Source: US20230256114A1, “NOVEL MAYTANSINOIDS AS ADC PAYLOADS AND THEIR USE FOR THE TREATMENT OF CANCER” (priority 2020, published 2023)

Assays:
[1] = Size exclusion chromatography (SEC) of ADC monomer and aggregates; type: physicochemical; conditions: anti-Trop-2 ADC with the named payload, Cysteine conjugation
Description: Some embodiments of the invention relate to DM1s linked to antibodies via a non-cleavable linker. In this example, anti-Trop-2 antibody was reduced by adding antibody to TCEP (Tris (2-carboxyethyl) phosphine) dissolved in a pH-adjusted PBS EDTA buffer. The antibody/TCEP solution was incubated at 37° C. for 2-3 hrs. The reduced antibodies were buffer exchanged into conjugation reaction buffer. The BI-P203 payload dissolved in DMSO was added to a solution of reduced anti-Trop-2 monoclonal antibody at payload/antibody ratio of 7-30:1 in order to achieve different drug to antibody ratios (DARs). The payload/antibody solution was incubated for 1-2 hr at 20° C. while the reduced antibody was conjugated to BI-P203 payload via the maleimide group. After conjugation was completed, the reaction mixture was desalted and concentrated to yield anti-Trop-2-DM1 ADCs. The biochemical properties of the resulting ADCs were characterized using size-exclusion chromatography high pressure liquid chromatography (SEC-HPLC) to determine purity and aggregation content, and by using hydrophobic interaction chromatography HPLC (HIC-HPLC) to confirm drug loading (DAR). The conjugation procedure is illustrated in FIG. 12. The final ADC products are comprised of four or six or seven DM1-linker molecules. The cysteine conjugation method used in the conjugation process produces more homogenous ADCs compared to lysine conjugation method.

[2] = test system: MDA-MB-468, SK-BR-3, Colo205, and A549 cells; test: In vitro cytotoxicity assay of ADCs and free payloads (FIG. 20); type: cell-based; conditions: all tested cells
Description: Anti-Trop-2 ADCs were conjugated with different DM1 derivatives with similar DARs, and were tested ahead to ahead with anti-Trop-2-SMCC-DM1 and anti-Trop-2-vc-MMAE against BxPC-3 pancreatic cancer cells representing high Trop-2 expression, MDA-MB-468 breast cancer cells, N87 gastric cancer cells, and SK-BR-3 […] cancer cells representing moderate Trop-2 expression, Colo205 colon cancer cells representing low Trop-2 expression, and A549 lung cancer cells and MDA-MB-231 breast cancer cells with undetectable level of Trop-2. In vitro cytotoxicity assay was performed. Briefly, all cell lines were cultured in a suitable culture medium at 37° C. in a humidified incubator atmosphere of 5% CO2. Cells were plated in 96-well flat bottom plates. Cell seeding number ranged from 500 cells//100 ul/well to 6,000 cells/100 μl/well. Cells were allowed to adhere overnight at 37° C. in a humidified atmosphere of 5% CO2. ADCs were prepared from stock solution and diluted into appropriated working concentration 24 hours after cell seeding. […] Cell Counting Kit-8 solution (Dojindo China Co., Ltd, lot #PL701) was added to the wells for 1-4 hours at 37° C. and the absorbance at 450 nm was measured using a Microplate Reader (SpectraMax M5, Molecular Devices) and SoftMax Pro5.4.1 software. Dose-response curves were generated and IC50 was calculated using GraphPad Prism 7 three-parameter curve fitting. […]

[3] = biological target: T1, Trophoblast cell-surface antigen-2 (Trop-2) (human, UniProt P09758 27-323); test: cell-based or functional assay
T1 sequence (looked up): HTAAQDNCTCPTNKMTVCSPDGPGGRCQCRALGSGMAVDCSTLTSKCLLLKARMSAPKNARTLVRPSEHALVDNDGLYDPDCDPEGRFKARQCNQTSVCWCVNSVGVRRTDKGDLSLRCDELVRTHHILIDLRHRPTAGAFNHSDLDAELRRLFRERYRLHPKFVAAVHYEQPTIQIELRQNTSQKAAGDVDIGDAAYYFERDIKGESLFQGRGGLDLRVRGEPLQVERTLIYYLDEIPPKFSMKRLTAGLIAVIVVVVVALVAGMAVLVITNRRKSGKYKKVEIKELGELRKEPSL

COc1cc2cc(c1Cl)N(C)C(=O)C[C@H](OC(=O)C1CCC(CNC(=O)CCOCCOCCOCCOCCNC(=O)CCN3C(=O)C=CC3=O)CC1)[C@@]1(C)O[C@H]1[C@H](C)[C@@H]1C[C@@](O)(NC(=O)O1)C(OC)/C=C/C=C(\C)C2 (stereo partly drawn) [BI-P208]
Aggregation rate (%) ([1]; DAR 3.0): 2.04% | Aggregation rate (%) ([1]; DAR 6.7): 9.46% | Aggregation rate (%) ([1]; DAR 7.3): 6.02%

COc1cc2cc(c1Cl)N(C)C(=O)C[C@H](OC(=O)[C@H](C)N(C)C(=O)CCCCCn1cc(COCCOCCOCCOCCNC(=O)CCN3C(=O)C=CC3=O)nn1)[C@@]1(C)O[C@H]1[C@H](C)[C@@H]1C[C@@](O)(NC(=O)O1)C(OC)/C=C/C=C(\C)C2 (stereo partly drawn) [BI-P204]
Aggregation rate (%) ([1]; DAR 2.8): 0.65%

COc1cc2cc(c1Cl)N(C)C(=O)C[C@H](OC(=O)C1CCN(C(=O)CCOCCOCCOCCOCCNC(=O)CCN3C(=O)C=CC3=O)CC1)[C@@]1(C)O[C@H]1[C@H](C)[C@@H]1C[C@@](O)(NC(=O)O1)C(OC)/C=C/C=C(\C)C2 (stereo partly drawn) [BI-P206]
Aggregation rate (%) ([1]; DAR 3.6): 0.76%

COc1cc2cc(c1Cl)N(C)C(=O)C[C@H](OC(=O)C1CCN(C(=O)CCOCCOCCOCCOCCOCCOCCNC(=O)CCN3C(=O)C=CC3=O)CC1)[C@@]1(C)O[C@H]1[C@H](C)[C@@H]1C[C@@](O)(NC(=O)O1)C(OC)/C=C/C=C(\C)C2 (stereo partly drawn) [BI-P207]
Aggregation rate (%) ([1]; DAR 3.4): 1.02%

COc1cc2cc(c1Cl)N(C)C(=O)C[C@H](OC(=O)[C@H](C)N(C)C(=O)COCCn1cc(COCCOCCOCCNC(=O)CCN3C(=O)C=CC3=O)nn1)C1(C)O[C@H]1[C@H](C)[C@@H]1C[C@@](O)(NC(=O)O1)C(OC)/C=C/C=C(\C)C2 (stereo partly drawn) [BI-P209]
in vitro cytotoxic potency of the free payload compared with free BI-P203 [2]: slightly more potent than free BI-P203 | Aggregation rate (%) ([1]; DAR 6.2): 4.96%

B1: Anti-Trop-2-BI-P203 (antibody, V domains shown)
VH: SALMSRLTISKDTSKNQFSLKLSSVTAADTAVYYCARDENWDGAWFAYWGQGTLVTVSS
VL: DIVMTQSPDSLAVSLGERATINCKSSQSLLNSGTRKNYLAWYQQKPGQPPKLLISWASSRESGVPDRFSGSGSGTDFTLTISSLQAEDVAVYYCKQSYNLFTFGGGTKVEIKR
modifications: BI-P203 maytansinoid drug-linker on reduced cysteines via the maleimide group; positions not given; DAR 3.5, 5.1 or 7
IC50 (nM), in vitro cytotoxicity (CCK-8, 72 h), BxPC-3 cells (TROP2 +++), ADC at DAR 3.5 [3]: 0.48 nM | IC50 (nM), in vitro cytotoxicity (CCK-8, 72 h), BxPC-3 cells (TROP2 +++), ADC at DAR 7 [3]: 0.59 nM | IC50 (nM), in vitro cytotoxicity (CCK-8, 72 h), Colo205 cells (TROP2 +), ADC at DAR 7 [3]: 31.8 nM | IC50 (nM), in vitro cytotoxicity (CCK-8, 72 h), MDA-MB-468 cells (TROP2 ++), ADC at DAR 5.1 [3]: 1.2 nM | IC50 (nM), in vitro cytotoxicity (CCK-8, 72 h), MDA-MB-468 cells (TROP2 ++), ADC at DAR 7 [3]: 0.77 nM | IC50 (nM), in vitro cytotoxicity (CCK-8, 72 h), NCI-N87 cells (TROP2 ++/+), ADC at DAR 3.5 [3]: 8.93 nM | IC50 (nM), in vitro cytotoxicity (CCK-8, 72 h), NCI-N87 cells (TROP2 ++/+), ADC at DAR 7 [3]: 0.62 nM

B2: Anti-Trop-2-BI-P205 (antibody, V domains shown)
VH: SALMSRLTISKDTSKNQFSLKLSSVTAADTAVYYCARDENWDGAWFAYWGQGTLVTVSS
VL: DIVMTQSPDSLAVSLGERATINCKSSQSLLNSGTRKNYLAWYQQKPGQPPKLLISWASSRESGVPDRFSGSGSGTDFTLTISSLQAEDVAVYYCKQSYNLFTFGGGTKVEIKR
modifications: BI-P205 maytansinoid drug-linker on cysteines; positions not given; DAR 3.6, 4.9 or 7.1
IC50 (nM), in vitro cytotoxicity (CCK-8, 72 h), BxPC-3 cells (TROP2 +++), ADC at DAR 3.6 [3]: 0.43 nM | IC50 (nM), in vitro cytotoxicity (CCK-8, 72 h), BxPC-3 cells (TROP2 +++), ADC at DAR 7.1 [3]: 0.52 nM | IC50 (nM), in vitro cytotoxicity (CCK-8, 72 h), Colo205 cells (TROP2 +), ADC at DAR 7.1 [3]: 26.1 nM | IC50 (nM), in vitro cytotoxicity (CCK-8, 72 h), MDA-MB-468 cells (TROP2 ++), ADC at DAR 4.9 [3]: 1.58 nM | IC50 (nM), in vitro cytotoxicity (CCK-8, 72 h), MDA-MB-468 cells (TROP2 ++), ADC at DAR 7.1 [3]: 0.47 nM | IC50 (nM), in vitro cytotoxicity (CCK-8, 72 h), NCI-N87 cells (TROP2 ++/+), ADC at DAR 3.6 [3]: 0.282 nM
